Assay results as given in paper PMC2649695 (Circulation research, 2009).

Target: T1, GST-MBS 683-866 (UniProt O14974 683-866)
T1 sequence (looked up): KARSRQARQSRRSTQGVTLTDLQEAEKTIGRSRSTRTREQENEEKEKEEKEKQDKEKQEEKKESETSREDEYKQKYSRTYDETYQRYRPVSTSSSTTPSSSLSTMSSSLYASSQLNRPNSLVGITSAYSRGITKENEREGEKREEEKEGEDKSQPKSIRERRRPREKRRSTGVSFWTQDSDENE
Experiment: pull-down

fold bound relative to mycROCK1: 2 fold
B1: Myc-tagged ROCK2 (natural protein, UniProt O75116 1-1388, looked up)
chain: MSRPPPTGKMPGAPETAPGDGAGASRQRKLEALIRDPRSPINVESLLDGLNSLVLDLDFPALRKNKNIDNFLNRYEKIVKKIRGLQMKAEDYDVVKVIGRGAFGEVQLVRHKASQKVYAMKLLSKFEMIKRSDSAFFWEERDIMAFANSPWVVQLFYAFQDDRYLYMVMEYMPGGDLVNLMSNYDVPEKWAKFYTAEVVLALDAIHSMGLIHRDVKPDNMLLDKHGHLKLADFGTCMKMDETGMVHCDTAVGTPDYISPEVLKSQGGDGFYGRECDWWSVGVFLYEMLVGDTPFYADSLVGTYSKIMDHKNSLCFPEDAEISKHAKNLICAFLTDREVRLGRNGVEEIRQHPFFKNDQWHWDNIRETAAPVVPELSSDIDSSNFDDIEDDKGDVETFPIPKAFVGNQLPFIGFTYYRENLLLSDSPSCRETDSIQSRKNEESQEIQKKLYTLEEHLSNEMQAKEELEQKCKSVNTRLEKTAKELEEEITLRKSVESALRQLEREKALLQHKNAEYQRKADHEADKKRNLENDVNSLKDQLEDLKKRNQNSQISTEKVNQLQRQLDETNALLRTESDTAARLRKTQAESSKQIQQLESNNRDLQDKNCLLETAKLKLEKEFINLQSALESERRDRTHGSEIINDLQGRICGLEEDLKNGKILLAKVELEKRQLQERFTDLEKEKSNMEIDMTYQLKVIQQSLEQEEAEHKATKARLADKNKIYESIEEAKSEAMKEMEKKLLEERTLKQKVENLLLEAEKRCSLLDCDLKQSQQKINELLKQKDVLNEDVRNLTLKIEQETQKRCLTQNDLKMQTQQVNTLKMSEKQLKQENNHLMEMKMNLEKQNAELRKERQDADGQMKELQDQLEAEQYFSTLYKTQVRELKEECEEKTKLGKELQQKKQELQDERDSLAAQLEITLTKADSEQLARSIAEEQYSDLEKEKIMKELEIKEMMARHKQELTEKDATIASLEETNRTLTSDVANLANEKEELNNKLKDVQEQLSRLKDEEISAAAIKAQFEKQLLTERTLKTQAVNKLAEIMNRKEPVKRGNDTDVRRKEKENRKLHMELKSEREKLTQQMIKYQKELNEMQAQIAEESQIRIELQMTLDSKDSDIEQLRSQLQALHIGLDSSSIGSGPGDAEADDGFPESRLEGWLSLPVRNNTKKFGWVKKYVIVSSKKILFYDSEQDKEQSNPYMVLDIDKLFHVRPVTQTDVYRADAKEIPRIFQILYANEGESKKEQEFPVEPVGEKSNYICHKGHEFIPTLYHFPTNCEACMKPLWHMFKPPPALECRRCHIKCHKDHMDKKEEIIAPCKVYYDISTAKNLLLLANSTEEQQKWVSRLVKKIPKKPPAPDPFARSSPRTSMKIQQNQSIRRPSRQLAPNKPS
